Results published in paper PMC2500128 (The Journal of Cell Biology, 2008).
Where two headings read alike, the source gives them in different places.

Legend:
[1] = target: microtubules (Cy5-labeled tubulin from porcine brain) (porcine (purified from porcine brain)) (UniProt P02550); experiment: single-molecule fluorescence motility assay
[2] = target: microtubules (Cy5-labeled tubulin from porcine brain) (porcine (purified from porcine brain)) (UniProt P02550); experiment: single-molecule fluorescence motility assay; remark: listed apart in the source
[3] = target: the molecule itself; experiment: single-molecule fluorescence and photobleaching

Molecule: Eg5-513-GFP (from UniProt P28025 1-513) (domain or fragment)
- time bound to the microtubule [1]: < 2 s

Molecule: full-length Xenopus laevis Eg5-GFP (from UniProt P28025 1-1067) (natural protein)
- average duration of motile events (binding events) [1]: 34 s
- average duration of motile events (binding events) [2]: 16 s

B1: Eg5-513-GFP (domain or fragment, X. laevis)
chain: MSSQNSFMASKKEDKGKNIQVVVRCRPFNQLERKASSHSVLECDSQRKEVYVRTGEVNDKLGKKTYTFDMVFGPAAKQIEVYRSVVCPILDEVIMGYNCTIFAYGQTGTGKTFTMEGERSSDEEFTWEQDPLAGIIPRTLHQIFEKLSENGTEFSVKVSLLEIYNEELFDLLSPSPDVGERLQMFDDPRNKRGVIIKGLEEISVHNKDEVYHILERGAARRKTASTLMNAYSSRSHSVFSVTIHMKETTVDGEELVKIGKLNLVDLAGSENIGRSGAVDKRAREAGNINQSLLTLGRVITALVERTPHIPYRESKLTRILQDSLGGRTKTSIIATVSPASINLEETVSTLDYANRAKSIMNKPEVNQKLTKKALIKEYTEEIERLKRELAAAREKNGVYLSSENYEQLQGKVLSQEEMITEYTEKITAMEEELKSISELFADNKKELEECTTILQCKEKELEETQNHLQESKEQLAQESFVVSAFETTEKKLHGTANKLLSTVRETTRDVSGLGSSGGGGSGGGGSGGGGS
- stoichiometry N [3]: 2
